IntAct's records for PubMed 31515488

B1: Protein-associating with the carboxyl-terminal domain of ezrin (Homo sapiens), Q8IZE3 (parent)
chain: MGSENSALKSYTLREPPFTLPSGLAVYPAVLQDGKFASVFVYKRENEDKVNKAAKHLKTLRHPCLLRFLSCTVEADGIHLVTERVQPLEVALETLSSAEVCAGIYDILLALIFLHDRGHLTHNNVCLSSVFVSEDGHWKLGGMETVCKVSQATPEFLRSIQSIRDPASIPPEEMSPEFTTLPECHGHARDAFSFGTLVESLLTILNEQVSADVLSSFQQTLHSTLLNPIPKCRPALCTLLSHDFFRNDFLEVVNFLKSLTLKSEEEKTEFFKFLLDRVSCLSEELIASRLVPLLLNQLVFAEPVAVKSFLPYLLGPKKDHAQGETPCLLSPALFQSRVIPVLLQLFEVHEEHVRMVLLSHIEAYVEHFTQEQLKKVILPQVLLGLRDTSDSIVAITLHSLAVLVSLLGPEVVVGGERTKIFKRTAPSFTKNTDLSLEDSPMCVVCSHHSQISPILENPFSSIFPKCFFSGSTPINSKKHIQRDYYNTLLQTGDPFSQPIKFPINGLSDVKNTSEDSENFPSSSKKSEEWPDWSEPEEPENQTVNIQIWPREPCDDVKSQCTTLDVEESSWDDCEPSSLDTKVNPGGGITATKPVTSGEQKPIPALLSLTEESMPWKSSLPQKISLVQRGDDADQIEPPKVSSQERPLKVPSELGLGEEFTIQVKKKPVKDPEMDWFADMIPEIKPSAAFLILPELRTEMVPKKDDVSPVMQFSSKFAAAEITEGEAEGWEEEGELNWEDNNW
partner: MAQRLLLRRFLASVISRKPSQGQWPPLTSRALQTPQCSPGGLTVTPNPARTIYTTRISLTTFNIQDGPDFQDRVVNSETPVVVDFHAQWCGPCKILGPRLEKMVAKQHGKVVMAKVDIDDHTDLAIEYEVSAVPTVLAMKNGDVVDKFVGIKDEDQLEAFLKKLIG
B2: Kelch-like protein 2 (Homo sapiens), O95198 (parent)
chain: METPPLPPACTKQGHQKPLDSKDDNTEKHCPVTVNPWHMKKAFKVMNELRSQNLLCDVTIVAEDMEISAHRVVLAACSPYFHAMFTGEMSESRAKRVRIKEVDGWTLRMLIDYVYTAEIQVTEENVQVLLPAAGLLQLQDVKKTCCEFLESQLHPVNCLGIRAFADMHACTDLLNKANTYAEQHFADVVLSEEFLNLGIEQVCSLISSDKLTISSEEKVFEAVIAWVNHDKDVRQEFMARLMEHVRLPLLPREYLVQRVEEEALVKNSSACKDYLIEAMKYHLLPTEQRILMKSVRTRLRTPMNLPKLMVVVGGQAPKAIRSVECYDFKEERWHQVAELPSRRCRAGMVYMAGLVFAVGGFNGSLRVRTVDSYDPVKDQWTSVANMRDRRSTLGAAVLNGLLYAVGGFDGSTGLSSVEAYNIKSNEWFHVAPMNTRRSSVGVGVVGGLLYAVGGYDGASRQCLSTVECYNATTNEWTYIAEMSTRRSGAGVGVLNNLLYAVGGHDGPLVRKSVEVYDPTTNAWRQVADMNMCRRNAGVCAVNGLLYVVGGDDGSCNLASVEYYNPTTDKWTVVSSCMSTGRSYAGVTVIDKPL
B3: G patch domain and ankyrin repeat-containing protein 1 (Homo sapiens), O95872 (parent)
chain: MSRPLLITFTPATDPSDLWKDGQQQPQPEKPESTLDGAAARAFYEALIGDESSAPDSQRSQTEPARERKRKKRRIMKAPAAEAVAEGASGRHGQGRSLEAEDKMTHRILRAAQEGDLPELRRLLEPHEAGGAGGNINARDAFWWTPLMCAARAGQGAAVSYLLGRGAAWVGVCELSGRDAAQLAEEAGFPEVARMVRESHGETRSPENRSPTPSLQYCENCDTHFQDSNHRTSTAHLLSLSQGPQPPNLPLGVPISSPGFKLLLRGGWEPGMGLGPRGEGRANPIPTVLKRDQEGLGYRSAPQPRVTHFPAWDTRAVAGRERPPRVATLSWREERRREEKDRAWERDLRTYMNLEF

Variants of: B1
Settings: with thiom_human TXN2, Q99757

Row | effect of a mutation on the interaction | Variant
1 | with no effect | L625F

Variants of: B2
Settings: with cul3_human CUL3, Q13618

Row | effect of a mutation on the interaction | Variant
2 | with no effect | METPPLPPACTKQGHQKPLDSKDDNTEKHCPVTVNPWHMKKAFKVMNELRSQNLLCDVTIVAEDMEISAHRVVLAACSPYFHAMFTGEMSESRAKRVRIKEVDGWTLRMLIDYVYTAEIQVTEENVQVLLPAAGLLQLQDVKKTCCEFLESQLHPINCLGIRAFADMHACTDLLNKANTYAEQHFADVVLSEEFLNLGIEQVCSLISSDKLTISSEEKVFEAVIAWVNHDKDVRQEFMARLMEHVRLPLLPREYLVQRVEEEALVKNSSACKDYLIEAMKYHLLPTEQRILMKSVRTRLRTPMNLPKLMVVVGGQAPKAIRSVECYDFKEERWHQVAELPSRRCRAGMVYMAGLVFAVGGFNGSLRVRTVDSYDPVKDQWTSVANMRDRRSTLGAAVLNGLLYAVGGFDGSTGLSSVEAYNIKSNEWFHVAPMNTRRSSVGVGVVGGLLYAVGGYDGASRQCLSTVECYNATTNEWTYIAEMSTRRSGAGVGVLNNLLYAVGGHDGPLVRKSVEVYDPTTNAWRQVADMNMCRRNAGVCAVNGLLYVVGGDDGSCNLASVEYYNPTTDKWTVVSSCMSTGRSYAGVTVIDKPL [V156I]

Variants of: B2
Settings: with zn114_human ZNF114, Q8NC26
Chain of zn114_human ZNF114, Q8NC26 (Q8NC26 whole entry): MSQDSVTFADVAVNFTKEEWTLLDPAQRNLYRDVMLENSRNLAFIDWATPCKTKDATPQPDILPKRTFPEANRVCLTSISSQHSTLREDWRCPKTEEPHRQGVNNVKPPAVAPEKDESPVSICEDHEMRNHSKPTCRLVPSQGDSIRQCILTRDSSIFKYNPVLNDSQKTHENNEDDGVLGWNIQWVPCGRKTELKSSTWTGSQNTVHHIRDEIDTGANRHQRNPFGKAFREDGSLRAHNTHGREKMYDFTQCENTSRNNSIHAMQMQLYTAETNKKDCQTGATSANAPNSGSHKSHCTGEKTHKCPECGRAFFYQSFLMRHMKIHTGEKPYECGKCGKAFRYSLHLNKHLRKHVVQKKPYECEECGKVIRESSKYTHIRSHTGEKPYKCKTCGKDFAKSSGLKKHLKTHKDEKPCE

Row | effect of a mutation on the interaction | Variant
3 | with no effect | METPPLPPACTKQGHQKPLDSKDDNTEKHCPVTVNPWHMKKAFKVMNELRSQNLLCDVTIVAEDMEISAHRVVLAACSPYFHAMFTGEMSESRAKRVRIKEVDGWTLRMLIDYVYTAEIQVTEENVQVLLPAAGLLQLQDVKKTCCEFLESQLHPINCLGIRAFADMHACTDLLNKANTYAEQHFADVVLSEEFLNLGIEQVCSLISSDKLTISSEEKVFEAVIAWVNHDKDVRQEFMARLMEHVRLPLLPREYLVQRVEEEALVKNSSACKDYLIEAMKYHLLPTEQRILMKSVRTRLRTPMNLPKLMVVVGGQAPKAIRSVECYDFKEERWHQVAELPSRRCRAGMVYMAGLVFAVGGFNGSLRVRTVDSYDPVKDQWTSVANMRDRRSTLGAAVLNGLLYAVGGFDGSTGLSSVEAYNIKSNEWFHVAPMNTRRSSVGVGVVGGLLYAVGGYDGASRQCLSTVECYNATTNEWTYIAEMSTRRSGAGVGVLNNLLYAVGGHDGPLVRKSVEVYDPTTNAWRQVADMNMCRRNAGVCAVNGLLYVVGGDDGSCNLASVEYYNPTTDKWTVVSSCMSTGRSYAGVTVIDKPL [V156I]

Variants of: B2
Settings: with txd12_human TXNDC12, O95881
Chain of txd12_human TXNDC12, O95881 (O95881 whole entry): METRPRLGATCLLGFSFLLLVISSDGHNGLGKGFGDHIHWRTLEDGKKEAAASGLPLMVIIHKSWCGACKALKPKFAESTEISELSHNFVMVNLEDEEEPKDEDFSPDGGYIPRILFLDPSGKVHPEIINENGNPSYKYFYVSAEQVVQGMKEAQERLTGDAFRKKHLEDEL

Row | effect of a mutation on the interaction | Variant
4 | with no effect | METPPLPPACTKQGHQKPLDSKDDNTEKHCPVTVNPWHMKKAFKVMNELRSQNLLCDVTIVAEDMEISAHRVVLAACSPYFHAMFTGEMSESRAKRVRIKEVDGWTLRMLIDYVYTAEIQVTEENVQVLLPAAGLLQLQDVKKTCCEFLESQLHPVNCLGIRAFADMHACTDLLNKANTYAEQHFADVVLSEEFLNLGIEQVCSLISSDKLTISSEEKVFEAVIAWVNHDKDVRQEFMARLMEHVRLPLLPREYLVQRVEEEALVKNSSACKDYLIEAMKYHLLPTEQRILMKSVRTRLRTPMNLPKLMVVVGGQAPKAIRSVECYDFKEERWHQVAELPSRRCRAGMVYMAGLVFAVGGFNGSLRVRTVDSYDPVKDQWTSVANMRDRRSTLGAAVLNGLLYAVGGFDGSTGLSSVEAYNIKSNEWFHVAPMNTRRSSVGVGVVGGLLYAVGGYDGASRQCLSTVECYNATTNEWTYITEMSTRRSGAGVGVLNNLLYAVGGHDGPLVRKSVEVYDPTTNAWRQVADMNMCRRNAGVCAVNGLLYVVGGDDGSCNLASVEYYNPTTDKWTVVSSCMSTGRSYAGVTVIDKPL [A480T]

Variants of: B2
Settings: with tma16_human TMA16, Q96EY4

Row | effect of a mutation on the interaction | Variant
5 | with no effect | METPPLPPACTKQGHQKPLDSKDDNTEKHCPVTVNPWHMKKAFKVMNELRSQNLLCDVTIVAEDMEISAHRVVLAACSPYFHAMFTGEMSESRAKRVRIKEVDGWTLRMLIDYVYTAEIQVTEENVQVLLPAAGLLQLQDVKKTCCEFLESQLHPVNCLGIRAFADMHACTDLLNKANTYAEQHFADVVLSEEFLNLGIEQVCSLISSDKLTISSEEKVFEAVIAWVNHDKDVRQEFMARLMEHVRLPLLPREYLVQRVEEEALVKNSSACKDYLIEAMKYHLLPTEQRILMKSVRTRLRTPMNLPKLMVVVGGQAPKAIRSVECYDFKEERWHQVAELPSRRCRAGMVYMAGLVFAVGGFNGSLRVRTVDSYDPVKDQWTSVANMRDRRSTLGAAVLNGLLYAVGGFDGSTGLSSVEAYNIKSNEWFHVAPMNTRRSSVGVGVVGGLLYAVGGYDGASRQCLSTVECYNATTNEWTYITEMSTRRSGAGVGVLNNLLYAVGGHDGPLVRKSVEVYDPTTNAWRQVADMNMCRRNAGVCAVNGLLYVVGGDDGSCNLASVEYYNPTTDKWTVVSSCMSTGRSYAGVTVIDKPL [A480T]

Variants of: B3
Settings: with pnma1_human PNMA1, Q8ND90
Chain of pnma1_human PNMA1, Q8ND90 (Q8ND90 whole entry): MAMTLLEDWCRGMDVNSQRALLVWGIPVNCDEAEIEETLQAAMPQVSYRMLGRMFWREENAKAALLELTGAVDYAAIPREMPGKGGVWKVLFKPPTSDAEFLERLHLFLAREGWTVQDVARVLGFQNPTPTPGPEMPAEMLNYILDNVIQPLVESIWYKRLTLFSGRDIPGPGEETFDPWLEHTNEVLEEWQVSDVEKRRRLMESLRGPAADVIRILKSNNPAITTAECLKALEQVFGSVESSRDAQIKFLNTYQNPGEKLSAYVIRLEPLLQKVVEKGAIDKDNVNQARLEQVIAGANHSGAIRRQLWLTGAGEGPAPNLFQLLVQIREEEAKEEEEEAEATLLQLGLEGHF

Row | effect of a mutation on the interaction | Variant
6 | with no effect | MSRPLLITFTPATDPSDLWKDGQQQPQPEKPESTLDGAAALAFYEALIGDESSAPDSQRSQTEPARERKRKKRRIMKAPAAEAVAEGASGRHGQGRSLEAEDKMTHRILRAAQEGDLPELRRLLEPHEAGGAGGNINARDAFWWTPLMCAARAGQGAAVSYLLGRGAAWVGVCELSGRDAAQLAEEAGFPEVARMVRESHGETRSPENRSPTPSLQYCENCDTHFQDSNHRTSTAHLLSLSQGPQPPNLPLGVPISSPGFKLLLRGGWEPGMGLGPRGEGRANPIPTVLKRDQEGLGYRSAPQPRVTHFPAWDTRAVAGRERPPRVATLSWREERRREEKDRAWERDLRTYMNLEF [R41L]

Variants of: B3
Settings: with tri23_human TRIM23, P36406
Chain of tri23_human TRIM23, P36406 (P36406 whole entry): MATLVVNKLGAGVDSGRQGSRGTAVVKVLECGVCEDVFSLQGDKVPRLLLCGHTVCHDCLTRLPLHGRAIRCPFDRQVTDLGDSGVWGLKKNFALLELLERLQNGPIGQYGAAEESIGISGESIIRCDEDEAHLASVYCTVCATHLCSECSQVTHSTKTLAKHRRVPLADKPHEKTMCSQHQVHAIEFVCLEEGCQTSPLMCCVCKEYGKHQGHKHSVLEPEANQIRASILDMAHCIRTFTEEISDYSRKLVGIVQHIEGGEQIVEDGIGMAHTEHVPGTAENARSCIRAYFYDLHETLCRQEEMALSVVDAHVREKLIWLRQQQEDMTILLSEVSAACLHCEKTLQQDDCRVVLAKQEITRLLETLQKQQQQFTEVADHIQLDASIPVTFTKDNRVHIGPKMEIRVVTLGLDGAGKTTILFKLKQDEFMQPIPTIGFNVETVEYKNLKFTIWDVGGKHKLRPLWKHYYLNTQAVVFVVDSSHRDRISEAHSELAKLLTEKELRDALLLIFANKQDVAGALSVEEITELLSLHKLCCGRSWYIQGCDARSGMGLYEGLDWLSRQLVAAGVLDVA

Row | effect of a mutation on the interaction | Variant
7 | with no effect | MSRPLLITFTPATDPSDLWKDGQQQPQPEKPESTLDGAAARAFYEALIGDESSAPESQRSQTEPARERKRKKRRIMKAPAAEAVAEGASGRHGQGRSLEAEDKMTHRILRAAQEGDLPELRRLLEPHEAGGAGGNINARDAFWWTPLMCAARAGQGAAVSYLLGRGAAWVGVCELSGRDAAQLAEEAGFPEVARMVRESHGETRSPENRSPTPSLQYCENCDTHFQDSNHRTSTAHLLSLSQGPQPPNLPLGVPISSPGFKLLLRGGWEPGMGLGPRGEGRANPIPTVLKRDQEGLGYRSAPQPRVTHFPAWDTRAVAGRERPPRVATLSWREERRREEKDRAWERDLRTYMNLEF [D56E]
